Reference: patent publication US20230087378A1 (UCB, published 2023)
“And” between values parts separate entries of the source, which are not always exact repeats. Equal values may be shown once.

Columns and labels:
[1] = biological target: mixture of cynomolgus IL-17A, IL-13 and albumin (cynomolgus); assay: SPR, mixture of cynomolgus IL-13, IL-17A and albumin injected together over captured antibody
[2] = biological target: T1, Human IL-13 (human, UniProt P35225 35-146); assay: cell-based or functional assay
[3] = biological target: T2, Human IL-17F (human, UniProt Q96PD4 31-163); assay: SPR (Biacore T200), antibody captured on anti-human F(ab')2, human IL-17F as analyte, 25 C, 1:1 model
T2 sequence (looked up): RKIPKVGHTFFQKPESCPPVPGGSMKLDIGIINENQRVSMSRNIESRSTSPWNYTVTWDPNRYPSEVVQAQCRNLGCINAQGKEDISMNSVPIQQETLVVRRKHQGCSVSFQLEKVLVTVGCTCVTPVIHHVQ
Procedure: (§1) A goat anti-human IgG, F(ab′)₂ fragment specific antibody (Jackson ImmunoResearch) was immobilised on a CM5 Sensor Chip via amine coupling chemistry to a level of approximately 5000 RU. […] At the end of each cycle the surface was regenerated at a flowrate of 10 μl/min using a 60 s injection of 50 mM HCl followed by a 30 s injection of 5 mM NaOH and a final 60 s injection of 50 mM HCl. […] Buffer blank injections were included to subtract instrument noise and drift.
(§2) Kinetic parameters were determined using a 1:1 binding model using Biacore T200 Evaluation software (version 3.0).

[4] = biological target: T3, Human IL-17A (human, UniProt Q16552 24-155); assay: SPR (Biacore T200), antibody captured on anti-human F(ab')2, human IL-17A as analyte, 25 C, 1:1 model
Procedure: as §1, §2

[5] = biological target: mixture of cynomolgus IL-17A, IL-13 and albumin (cynomolgus); assay: SPR, response of the cynomolgus mixture against the sum of the single-analyte responses
[6] = biological target: mixture of human IL-17A, IL-13 and albumin (human); assay: SPR, response of the human mixture against the sum of the single-analyte responses
[7] = biological target: mixture of human IL-17A, IL-13 and albumin (human); assay: SPR, mixture of human IL-13, IL-17A and albumin injected together over captured antibody
[8] = biological target: T1, Human IL-13; assay: SPR (Biacore T200), antibody captured on anti-human F(ab')2, human IL-13 as analyte, 25 C, 1:1 model
Procedure: as §1, §2

[9] = biological target: T3, Human IL-17A; assay: cell-based or functional assay
[10] = biological target: T2, Human IL-17F; assay: cell-based or functional assay
[11] = biological target: T4, Cyno IL-17A (cynomolgus, UniProt A0A2K5TTB0 24-155); assay: cell-based or functional assay
[12] = biological target: T5, Cyno IL-17F (cynomolgus, UniProt G7P4V0 31-163); assay: cell-based or functional assay
T5 sequence: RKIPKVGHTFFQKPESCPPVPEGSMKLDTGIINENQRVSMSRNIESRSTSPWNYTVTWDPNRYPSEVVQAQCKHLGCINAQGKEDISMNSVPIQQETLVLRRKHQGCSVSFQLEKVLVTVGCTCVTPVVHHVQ

[13] = biological target: T3, Human IL-17A; assay: cell-based or functional assay; remark: listed apart in the source
[14] = biological target: T2, Human IL-17F; assay: cell-based or functional assay; remark: listed apart in the source
[15] = biological target: T1, Human IL-13; assay: cell-based or functional assay; remark: listed apart in the source
[16] = biological target: mixture of cynomolgus IL-17A, IL-13 and albumin (cynomolgus); assay: SPR, response of the cynomolgus mixture against the sum of the single-analyte responses, mean of n = 3
[17] = biological target: mixture of human IL-17A, IL-13 and albumin (human); assay: SPR, response of the human mixture against the sum of the single-analyte responses, mean of n = 3
[18] = biological target: T3, Human IL-17A; assay: SPR (Biacore T200), antibody captured on anti-human F(ab')2, analyte in solution, 25 C, 1:1 model
Text: (§3) A goat anti-human IgG, F(ab′)₂ fragment specific antibody (Jackson ImmunoResearch) was immobilised on a CM5 Sensor Chip via amine coupling chemistry to a level of approximately 5000 RU. […] Buffer blank injections were included to subtract instrument noise and drift.

[19] = biological target: T6, Cyno IL-17AF (cynomolgus, UniProt A0A2K5TTB0 24-155; G7P4V0 31-163); assay: as above
T6 construct: also called Cynomolgus IL-17AF
Text: as §3

[20] = biological target: T7, Cyno IL-13 (cynomolgus, UniProt Q0PW92 21-132); assay: as above
T7 construct: also called Cynomolgus IL-13
Text: as §3

[21] = biological target: T2, Human IL-17F; assay: as above
Text: as §3

[22] = biological target: T1, Human IL-13; assay: as above
Text: as §3

[23] = biological target: T8, Cyno albumin (cynomolgus, UniProt A2V9Z4 25-608); assay: as above
T8 construct: also called Cynomolgus albumin
Text: as §3

[24] = biological target: T9, Human IL-17AF (human, UniProt Q16552 24-155; Q96PD4 31-163); assay: as above
T9 construct: also called IL-17A/F heterodimer
Text: as §3

[25] = biological target: T10, Human albumin (human, UniProt P02768 25-609); assay: as above
T10 construct: also called human serum albumin
Text: as §3

[26] = biological target: T4, Cyno IL-17A; assay: as above
Text: as §3

[27] = biological target: T5, Cyno IL-17F; assay: as above
Text: as §3

B1: IL-13/IL-17AF multi-specific antibody (bispecific antibody)
heavy: EVQLVESGGGLVQPGGSLRLSCAASGFTFSDYNMAWVRQAPGKGLEWVATITYEGRNTYYRDSVKGRFTISRDNAKNSLYLQMNSLRAEDTAVYYCASPPQYYEGSIYRLWFAHWGQGTLVTVSSASTKGPSVFPLAPSSKSTSGGTAALGCLVKDYFPEPVTVSWNSGALTSGVHTFPAVLQSSGLYSLSSVVTVPSSSLGTQTYICNVNHKPSNTKVDKKVEPKSCSGGGGTGGGGSEVQLLESGGGLVQPGGSLRLSCAVSGIDLSNYAINWVRQAPGKCLEWIGIIWASGTTFYATWAKGRFTISRDNSKNTVYLQMNSLRAEDTAVYYCARTVPGYSTAPYFDLWGQGTLVTVSSGGGGSGGGGSGGGGSGGGGSDIQMTQSPSSVSASVGDRVTITCQSSPSVWSNFLSWYQQKPGKAPKLLIYEASKLTSGVPSRFSGSGSGTDFTLTISSLQPEDFATYYCGGGYSSISDTTFGCGTKVEIKRT
light: AIQLTQSPSSLSASVGDRVTITCRADESVRTLMHWYQQKPGKAPKLLIYLVSNSEIGVPDRFSGSGSGTDFRLTISSLQPEDFATYYCQQTWSDPWTFGQGTKVEIKRTVAAPSVFIFPPSDEQLKSGTASVVCLLNNFYPREAKVQWKVDNALQSGNSQESVTEQDSKDSTYSLSSTLTLSKADYEKHKVYACEVTHQGLSSPVTKSFNRGECSGGGGSGGGGSEVQLVQSGAEVKKPGSSVKVSCKASGYSFTSYYIHWVRQAPGQCLEWMGRIGPGSGDINYNEKFKGRATFTVDKSTSTAYMELSSLRSEDTAVYYCARFHYDGADWGQGTLVTVSSGGGGSGGGGSGGGGSGGGGSDIQMTQSPSSLSASVGDRVTITCKASQNINENLDWYQQKPGKAPKLLIYYTDILQTGIPSRFSGSGSGTDYTLTISSLQPEDFATYYCYQYYSGYTFGCGTKLEIKRT
notes: also called UCBXXXX; IL-17AF-IL-13 multi-specific antibody
- Binding, n = 1 (RU) [1]: 146 RU
- Binding, n = 2 (RU) [1]: 141 RU
- Binding, n = 3 (RU) [1]: 145 RU
- IC50 for inhibition of STAT6 signalling (HEK 293 Human IL4/IL-13 SEAP reporter cells) [2]: 4.12 pM and 0.412 ng/ml
- Kd [3]: 82.1 pM
- koff [3]: 0.000219 s⁻¹
- kon [3]: 2.66e+06 M⁻¹ s⁻¹
- Kd [4]: 8.2 pM
- koff [4]: 3.45e-05 s⁻¹
- kon [4]: 3.2e+06 M⁻¹ s⁻¹
- Binding of Mixture as a Percentage of Individual Binding Responses (%), n = 1 [5]: 97%
- Binding of Mixture as a Percentage of Individual Binding Responses (%), n = 2 [5]: 96%
- Binding of Mixture as a Percentage of Individual Binding Responses (%), n = 3 [5]: 97%
- Binding of Mixture as a Percentage of Individual Binding Responses (%), n = 1 [6]: 100%
- Binding of Mixture as a Percentage of Individual Binding Responses (%), n = 2 [6]: 100%
- Binding of Mixture as a Percentage of Individual Binding Responses (%), n = 3 [6]: 100%
- Binding, n = 1 (RU) [7]: 81 RU
- Binding, n = 2 (RU) [7]: 131 RU
- Binding, n = 3 (RU) [7]: 129 RU
- Kd [8]: 25.8 pM
- koff [8]: 0.000111 s⁻¹
- kon [8]: 3.61e+06 M⁻¹ s⁻¹
- IC50, inhibition of IL-6 release from nHDF stimulated with IL-17A and TNF-α [9]: 42 pM
- IC50, inhibition of IL-6 release from nHDF stimulated with IL-17F and TNF-α [10]: 28000 pM
- IC50, inhibition of IL-6 release from nHDF stimulated with IL-17A and TNF-α [11]: 49 pM
- IC50, inhibition of IL-6 release from nHDF stimulated with IL-17F and TNF-α [12]: 34300 pM
- inhibition of CXCL1 release from NHEK treated with a mixture of IL-13, IL-17A and IL-17F [13]: 81.3%
- inhibition of CXCL1 release from NHEK treated with a mixture of IL-13, IL-17A and IL-17F [14]: 81.3%
- inhibition of CXCL1 release from NHEK treated with a mixture of IL-13, IL-17A and IL-17F [15]: 81.3%
- Binding of Mixture as a Percentage of Individual Binding Responses (%), Mean [16]: 97%
- Binding of Mixture as a Percentage of Individual Binding Responses (%), Mean [17]: 100%
- Kd [18]: 9 pM
- koff [18]: 1.57e-05 s⁻¹
- kon [18]: 2.26e+06 M⁻¹ s⁻¹
- Kd [19]: 14 pM
- koff [19]: 2.87e-05 s⁻¹
- kon [19]: 2.25e+06 M⁻¹ s⁻¹
- Kd [20]: 156 pM
- koff [20]: 0.000148 s⁻¹
- kon [20]: 948000 M⁻¹ s⁻¹
- Kd [21]: 128 pM
- koff [21]: 0.000198 s⁻¹
- kon [21]: 1.67e+06 M⁻¹ s⁻¹
- Kd [22]: 26 pM
- koff [22]: 3.84e-05 s⁻¹
- kon [22]: 1.46e+06 M⁻¹ s⁻¹
- Kd [23]: 2470 pM
- koff [23]: 0.000204 s⁻¹
- kon [23]: 81800 M⁻¹ s⁻¹
- Kd [24]: 15 pM
- koff [24]: 4.54e-05 s⁻¹
- kon [24]: 3.7e+06 M⁻¹ s⁻¹
- Kd [25]: 2510 pM
- koff [25]: 0.000154 s⁻¹
- kon [25]: 66500 M⁻¹ s⁻¹
- Kd [26]: 7 pM
- koff [26]: 1.24e-05 s⁻¹
- kon [26]: 1.65e+06 M⁻¹ s⁻¹
- Kd [27]: 283 pM
- koff [27]: 0.000282 s⁻¹
- kon [27]: 1.14e+06 M⁻¹ s⁻¹
